Source: patent US20240270846A1 (published 2024)
Substitutions are numbered along the chain they refer to.

B1: CE115HA000 H chain altered form H35L (antibody, human IgG1, kappa, L234A L235A, N297A, name in Kabat numbering)
heavy: QVQLVESGGGVVQPGRSLRLSCAASGFTFSNAWMLWVRQAPGKGLEWVAQIKAKSNNYATYYAESVKGRFTISRDDSKNSLYLQMNSLKTEDTAVYYCRYVHYGAYYGVDAWGQGTTVTVSSASTKGPSVFPLAPSSKSTSGGTAALGCLVKDYFPEPVTVSWNSGALTSGVHTFPAVLQSSGLYSLSSVVTVPSSSLGTQTYICNVNHKPSNTKVDKKVEPKSCDKTHTCPPCPAPEAAGGPSVFLFPPKPKDTLMISRTPEVTCVVVDVSHEDPEVKFNWYVDGVEVHNAKTKPREEQYASTYRVVSVLTVLHQDWLNGKEYKCKVSNKALPAPIEKTISKAKGQPREPQVYTLPPSRCELTKNQVSLSCAVKGFYPSDIAVEWESNGQPENNYKTTPPVLDSDGSFFLVSKLTVDKSRWQQGNVFSCSVMHEALHNHYTQKSLSLSPDYKDDDDK
chain: EPKSSDKTHTCPPCPAPELLGGPSVFLFPPKPKDTLMISRTPEVTCVVVDVSHEDPEVKFNWYVDGVEVHNAKTKPREEQYNSTYRVVSVLTVLHQDWLNGKEYKCKVSNKALPAPIEKTISKAKGQPREPQVCTLPPSRDELTKNQVSLWCLVKGFYPSDIAVEWESNGQPENNYKTTPPVLDSDGSFFLYSKLTVDKSRWQQGNVFSCSVMHEALHNRYTQKSLSLSP
light: DIVMTQSPLSLPVTPGEPASISCRSSQSLVHSNRNTYLHWYQQKPGQAPRLLIYKVSNRFSGVPDRFSGSGSGTDFTLKISRVEAEDVGVYYCGQGTQVPYTFGQGTKLEIKRTVAAPSVFIFPPSDEQLKSGTASVVCLLNNFYPREAKVQWKVDNALQSGNSQESVTEQDSKDSTYSLSSTLTLSKADYEKHKVYACEVTHQGLSSPVTKSFNRGEC
notes: one-arm antibody
B2: CE115HA000 H chain altered form K52E (antibody, human IgG1, kappa, L234A L235A, N297A, name in Kabat numbering)
heavy: B1 heavy with L35H, K52E
chain: B1 chain
light: B1 light
notes: one-arm antibody
B3: CE115HA000 H chain altered form K52H (antibody, human IgG1, kappa, L234A L235A, N297A, name in Kabat numbering)
heavy: B1 heavy with L35H, K52H
chain: B1 chain
light: B1 light
notes: one-arm antibody
B4: CE115HA000 H chain altered form K52F (antibody, human IgG1, kappa, L234A L235A, N297A, name in Kabat numbering)
heavy: B1 heavy with L35H, K52F
chain: B1 chain
light: B1 light
notes: one-arm antibody
B5: CE115HA000 H chain altered form K52bR (antibody, human IgG1, kappa, L234A L235A, N297A, name in Kabat numbering)
heavy: B1 heavy with L35H, K54R
chain: B1 chain
light: B1 light
notes: one-arm antibody
B6: CE115HA000 H chain altered form K52bN (antibody, human IgG1, kappa, L234A L235A, N297A, name in Kabat numbering)
heavy: B1 heavy with L35H, K54N
chain: B1 chain
light: B1 light
notes: one-arm antibody
B7: CE115HA000 H chain altered form K52R (antibody, human IgG1, kappa, L234A L235A, N297A, name in Kabat numbering)
heavy: B1 heavy with L35H, K52R
chain: B1 chain
light: B1 light
notes: one-arm antibody
B8: CE115HA000 H chain altered form N31A (antibody, human IgG1, kappa, L234A L235A, N297A, name in Kabat numbering)
heavy: B1 heavy with N31A, L35H
chain: B1 chain
light: B1 light
notes: one-arm antibody
B9: CE115HA000 H chain altered form H35S (antibody, human IgG1, kappa, L234A L235A, N297A, name in Kabat numbering)
heavy: B1 heavy with L35S
chain: B1 chain
light: B1 light
notes: one-arm antibody
B10: CE115HA000 H chain altered form H35Y (antibody, human IgG1, kappa, L234A L235A, N297A, name in Kabat numbering)
heavy: B1 heavy with L35Y
chain: B1 chain
light: B1 light
notes: one-arm antibody
B11: CE115HA000 H chain altered form K52bD (antibody, human IgG1, kappa, L234A L235A, N297A, name in Kabat numbering)
heavy: B1 heavy with L35H, K54D
chain: B1 chain
light: B1 light
notes: one-arm antibody
B12: CE115HA000 H chain altered form K52bL (antibody, human IgG1, kappa, L234A L235A, N297A, name in Kabat numbering)
heavy: B1 heavy with L35H, K54L
chain: B1 chain
light: B1 light
notes: one-arm antibody
B13: CE115HA000 H chain altered form H35Q (antibody, human IgG1, kappa, L234A L235A, N297A, name in Kabat numbering)
heavy: B1 heavy with L35Q
chain: B1 chain
light: B1 light
notes: one-arm antibody
B14: CE115HA000 H chain altered form K43E (antibody, human IgG1, kappa, L234A L235A, N297A, name in Kabat numbering)
heavy: B1 heavy with L35H, K43E
chain: B1 chain
light: B1 light
notes: one-arm antibody
B15: CE115HA000 H chain altered form H35R (antibody, human IgG1, kappa, L234A L235A, N297A, name in Kabat numbering)
heavy: B1 heavy with L35R
chain: B1 chain
light: B1 light
notes: one-arm antibody
B16: CE115HA000 H chain altered form K52bS (antibody, human IgG1, kappa, L234A L235A, N297A, name in Kabat numbering)
heavy: B1 heavy with L35H, K54S
chain: B1 chain
light: B1 light
notes: one-arm antibody
B17: CE115HA000 H chain altered form I51D (antibody, human IgG1, kappa, L234A L235A, N297A, name in Kabat numbering)
heavy: B1 heavy with L35H, I51D
chain: B1 chain
light: B1 light
notes: one-arm antibody
B18: CE115HA000 H chain altered form H35T (antibody, human IgG1, kappa, L234A L235A, N297A, name in Kabat numbering)
heavy: B1 heavy with L35T
chain: B1 chain
light: B1 light
notes: one-arm antibody
B19: CE115HA000 H chain altered form H35N (antibody, human IgG1, kappa, L234A L235A, N297A, name in Kabat numbering)
heavy: B1 heavy with L35N
chain: B1 chain
light: B1 light
notes: one-arm antibody
B20: CE115HA000 H chain altered form H35W (antibody, human IgG1, kappa, L234A L235A, N297A, name in Kabat numbering)
heavy: B1 heavy with L35W
chain: B1 chain
light: B1 light
notes: one-arm antibody
B21: CE115HA000 H chain altered form H35M (antibody, human IgG1, kappa, L234A L235A, N297A, name in Kabat numbering)
heavy: B1 heavy with L35M
chain: B1 chain
light: B1 light
notes: one-arm antibody
B22: CE115HA000 H chain altered form K43Q (antibody, human IgG1, kappa, L234A L235A, N297A, name in Kabat numbering)
heavy: B1 heavy with L35H, K43Q
chain: B1 chain
light: B1 light
notes: one-arm antibody
B23: CE115HA000 H chain altered form K52W (antibody, human IgG1, kappa, L234A L235A, N297A, name in Kabat numbering)
heavy: B1 heavy with L35H, K52W
chain: B1 chain
light: B1 light
notes: one-arm antibody
B24: CE115HA000 H chain altered form K52N (antibody, human IgG1, kappa, L234A L235A, N297A, name in Kabat numbering)
heavy: B1 heavy with L35H, K52N
chain: B1 chain
light: B1 light
notes: one-arm antibody
B25: CE115HA000 H chain altered form K52bQ (antibody, human IgG1, kappa, L234A L235A, N297A, name in Kabat numbering)
heavy: B1 heavy with L35H, K54Q
chain: B1 chain
light: B1 light
notes: one-arm antibody
B26: CE115HA000 H chain altered form K52bA (antibody, human IgG1, kappa, L234A L235A, N297A, name in Kabat numbering)
heavy: B1 heavy with L35H, K54A
chain: B1 chain
light: B1 light
notes: one-arm antibody
B27: CE115HA000 H chain altered form K52S (antibody, human IgG1, kappa, L234A L235A, N297A, name in Kabat numbering)
heavy: B1 heavy with L35H, K52S
chain: B1 chain
light: B1 light
notes: one-arm antibody
B28: CE115HA000 H chain altered form K52I (antibody, human IgG1, kappa, L234A L235A, N297A, name in Kabat numbering)
heavy: B1 heavy with L35H, K52I
chain: B1 chain
light: B1 light
notes: one-arm antibody
B29: CE115HA000 H chain altered form K52D (antibody, human IgG1, kappa, L234A L235A, N297A, name in Kabat numbering)
heavy: B1 heavy with L35H, K52D
chain: B1 chain
light: B1 light
notes: one-arm antibody
B30: CE115HA000 H chain altered form K52Y (antibody, human IgG1, kappa, L234A L235A, N297A, name in Kabat numbering)
heavy: B1 heavy with L35H, K52Y
chain: B1 chain
light: B1 light
notes: one-arm antibody
B31: CE115HA000 H chain altered form H35V (antibody, human IgG1, kappa, L234A L235A, N297A, name in Kabat numbering)
heavy: B1 heavy with L35V
chain: B1 chain
light: B1 light
notes: one-arm antibody
B32: CE115HA000 H chain altered form K52bY (antibody, human IgG1, kappa, L234A L235A, N297A, name in Kabat numbering)
heavy: B1 heavy with L35H, K54Y
chain: B1 chain
light: B1 light
notes: one-arm antibody
B33: CE115HA000 H chain altered form I51E (antibody, human IgG1, kappa, L234A L235A, N297A, name in Kabat numbering)
heavy: B1 heavy with L35H, I51E
chain: B1 chain
light: B1 light
notes: one-arm antibody

What follows are binders tested against T1, CD3 epsilon homodimer protein (UniProt P07766 23-126) (assay: SPR Biacore T200, CD3 epsilon homodimer on chip, antibody as analyte;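 also: homodimer amine-coupled to a CM4 sensor chip, run at 25 °C in HBS-EP+ buffer, with kinetic parameters derived in Biacore T200 Evaluation Software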).
T1 construct: also called CD3 (CD3 epsilon)
T1 sequence (P07766 23-126): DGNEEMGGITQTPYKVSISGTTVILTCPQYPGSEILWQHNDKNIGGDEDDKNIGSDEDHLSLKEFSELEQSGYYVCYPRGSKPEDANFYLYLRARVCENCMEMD

Point of comparison: B19, “KD ratio (KD of CE115HA000 / KD of altered form)” value 2.88. Against it:
- B1 — higher, 4.8
- B2 — higher, 19.4
- B3 — lower, 2.65
- B4 — higher, 4.04
- B5 — lower, 0.91
- B6 — lower, 0.43
- B7 — lower, 0.8
- B8 — lower, 0.96
- B9 — higher, 2.93
- B10 — higher, 119000
- B11 — lower, 0.56
- B12 — lower, 0.61
- B13 — higher, 4.8
- B14 — lower, 0.88
- B15 — higher, 15400
- B16 — lower, 0.58
- B17 — higher, 6.37
- B18 — higher, 4.4
- B20 — higher, 50.4
- B21 — higher, 3.98
- B22 — lower, 0.89
- B23 — lower, 2.69
- B24 — higher, 3.29
- B25 — lower, 0.62
- B26 — lower, 0.58
- B27 — higher, 92.1
- B28 — higher, 3.54
- B29 — higher, 166
- B30 — higher, 6.47
- B31 — higher, 28.1
- B32 — lower, 0.61
- B33 — lower, 0.84
